In patent publication US10144929B2, “Polypeptide inhibitors of Smad3 polypeptide activities” (Mayo Foundation for Medical Education and Research, priority 2016, dated 2018):
No end group written: not given here.

Target: T1, pSmad3 (Mus musculus, UniProt Q8BUN5)
T1 construct: endogenous in cells; host or cells: AKR-2B cells
Test: Nuclear import of pSmad3 (nuclear fractions Western, immunofluorescence) in AKR-2B cells
Assay type: cell-based
Details: 90 minutes transduction, TGFβ 5 ng/mL 1 hour
Method: FIGS. 1A-C. SH3 domain of sorting nexin 9 (SNX9) specifically binds pSmad3 and prevents nuclear import. (A) Cartoon depicting domains in full length (FL) SNX9 and constructs used for GST pull down assays. Lysates from AKR-2B cells untreated (−) or stimulated (+) for 45 minutes with 5 ng/mL TGFβ were incubated with GST beads or the indicated fusion polypeptides immobilized on GST beads. Bound polypeptides were eluted and assessed by Western analysis for pSmad3 or pSmad2. Cell lysate reflects signal obtained from 10 μg total protein. (B) AKR-2B cells were transduced for 90 minutes with the indicated concentrations of the TAT-SNX9(SH3) fusion polypeptides. […] Quantitation of nuclear pSmads was performed with Image J software and represents the mean+/−sd of two experiments (Right). […] Quantitation of nuclear Smad3 from 30 cells in each of two experiments (Right).
FIGS. 3A-E. Inhibition of Smad3 signaling by a defined region of the SH3 domain in SNX9. […] (B) Nuclear fractions were prepared and assessed as in FIG. 1B following transduction with the indicated TAT-SNX9(SH3) fusion polypeptide (Left). Quantitation (mean+/−sd) of nuclear pSmad2 or pSmad3 from 2 experiments (Right). (C) Immunofluorescence of nuclear Smad3 was determined as in FIG. 1C from 30 cells in each of two experiments in the absence (−) or presence (+) of 5 ng/mL TGFβ and the indicated TAT-SNX9(SH3) fusion polypeptide (1.5 μM). […]

T1 sequence (Q8BUN5 whole entry): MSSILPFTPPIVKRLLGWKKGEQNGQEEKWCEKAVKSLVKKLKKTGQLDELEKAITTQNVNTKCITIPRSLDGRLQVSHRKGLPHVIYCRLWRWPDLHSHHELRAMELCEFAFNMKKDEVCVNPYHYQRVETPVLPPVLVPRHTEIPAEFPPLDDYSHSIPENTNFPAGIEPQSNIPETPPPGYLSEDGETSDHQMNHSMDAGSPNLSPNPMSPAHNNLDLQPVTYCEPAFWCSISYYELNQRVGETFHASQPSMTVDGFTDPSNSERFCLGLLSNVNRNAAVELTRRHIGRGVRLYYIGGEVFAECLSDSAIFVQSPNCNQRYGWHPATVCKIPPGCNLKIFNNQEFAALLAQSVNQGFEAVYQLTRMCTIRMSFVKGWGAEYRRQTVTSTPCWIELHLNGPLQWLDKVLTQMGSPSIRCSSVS

With “TAT-containing polypeptide encoding amino acids 27-42 of SNX9: 16 mer TAT-SNX9(SH3) fusion polypeptide, SNX9 amino acids 27-42; probably SH3-2-2 (SEQ ID NO:34) (IITITNPDVGGGWLEG; also: TAT cell-penetrating peptide fusion; UniProt Q9Y5X1 27-42, looked up, fragment)” the “nuclear import of pSmad3” value was “activity similar to that obtained with SB431542”.
